# Experimental data: US20210070843A1
# Numbering of substitutions follows the chain as printed.
# B1: P58 (antibody, V domains shown)
# VH: EVQLVESGGGLVQPGGSLRLSCAASGFTIGGGGIHWVRQAPGKGLEWVAWIWPYWGYTYYADSVKGRFTISADTSKNTAYLQMNSLRAEDTAVYYCARFNSYSYSGVMDYWGQGTLVTVSS
# VL: DIQMTQSPSSLSASVGDRVTITCRASQDVYSYVAWYQQKPGKAPKLLISSSRGLYSGVPSRFSGSGSGTDFTLTISSLQPEDFATYYCQQYSSFPITFGQGTKVEIKR
# B2: P03 (antibody, V domains shown)
# VH: EVQLVESGGGLVQPGGSLRLSCAASGFTIDSFGIHWVRQAPGKGLEWVAFIGPFGGSTFYADSVKGRFTISADTSKNTAYLQMNSLRAEDTAVYYCARFDSNSYSYHGIMDYWGQGTLVTVSS
# VL: B1 VL with Y30W, S31G, S50W, R52G, G53S, S92Y, S93N, F94W, I96V
# B3: S29 (antibody, V domains shown)
# VH: EVQLVESGGGLVQPGGSLRLSCAASGFTISDYWIHWVRQAPGKGLEWVASIWPSGGYTYYADSVKGRFTISADTSKNTAYLQMNSLRAEDTAVYYCARFNWIVGHYMDYWGQGTLVTVSS
# VL: B1 VL with Y30F, S31G, Y32G, S49Y, S50W, R52S, G53W, S92Y, S93D, F94G
# B4: S48 (antibody, V domains shown)
# VH: EVQLVESGGGLVQPGGSLRLSCAVSGFTIGDGSIHWVRQAPGKGLEWVASIGPYGGSTYYADSVKGRFTISADTSKNTAYLQMNSLRAEDTAVYYCARFHYGYWNNMDYWGQGTLVTVSS
# VL: B1 VL with Y30G, S31W, Y32W, S49Y, S50G, S51T, G53W, L78V, S92Y, F94G
# B5: S11 (antibody, V domains shown)
# VH: EVQLVESGGGLVQPGGSLRLSCAASGFTIDNGGIHWVRQAPGKGLEWVAWIGPYGGSTSYADSVKGRFTISADTSKNTAYLQMNSLRAEDTAVYYCARFGFGLHDLMDYWGQGTLVTVSS
# VL: B1 VL with Y32W, S49Y, S50Y, R52S, G53F, S92Y, S93N, F94G, I96L
# B6: P44 (antibody, V domains shown)
# VH: EVQLVESGGGLVQPGGSLRLSCAASGFTIDGWWIHWVRQAPGKGLEWVAGIWPFGGFTSYADSVKGRFTISADTSKNTAYLQMNSLRAEDTAVYYCARSYSGYSGDYWGQGTLVTVSS
# VL: B1 VL with Y30N, S31N, Y32N, S49Y, S50W, R52S, G53S, S92Y, S93N, I96V
# B7: Do1 (antibody, V domains shown)
# VH: EVQLVESGGGLVQPGGSLRLSCAASGFTIDNGSIHWVRQAPGKGLEWVAWIGPYGGFTSYADSVKGRFTISADTSKNTAYLQMNSLRAEDTAVYYCARFYGSGSSSFMDYWGQGTLVTVSS
# VL: B1 VL with Y30W, S31G, Y32G, S49F, S50F, G53Y, S92Y, S93N, F94G, I96L
# B8: S45 (antibody, V domains shown)
# VH: EVQLVESGGGLVQPGGSLRLSCAASGFTINGSSIHWVRQAPGKGLEWVAYIGPFGGSTYYADSVKGRFTISADTSKNTAYLQMNSLRAEDTAVYYCARFWHGYNLYMDYWGQGTLVTVSS
# VL: DIQMTQSPSSLSASVGDRVTITCRASQDVGWWVAWYQQKPGKAPKLLIYGARFLYSGVPSRFSGSGSGTDFTLTISSLQPEDFATYYCQQYFNGPLTFGQGTKVEIKR
# Legend:
# [1] = molecular target: recombinant H3N2 WN/05 HA trimer (hemagglutinin ectodomain of A/Wisconsin/67/2005) (influenza A virus A/Wisconsin/67/2005 (H3N2)); assay: ELISA, coated HA
# [2] = molecular target: H7 A/Anhui/1-BALF_RG17/2013 HA on H7N9 AH/13 pseudo virus (influenza A virus A/Anhui/1-BALF_RG17/2013 (H7N9)); assay: cell-based or functional assay
# [3] = molecular target: cell surface-expressed H3N2 WN/05 HA trimer (influenza A virus A/Wisconsin/67/2005 (H3N2)); assay: cell-based or functional assay
# [4] = molecular target: full-length H1 A/California/07/2009 HA expressed on 293T cells (influenza A virus A/California/07/2009 (H1N1)); assay: cell-based or functional assay
# [5] = molecular target: full-length H5 A/Vietnam/1203/2004 HA expressed on 293T cells (influenza A virus A/Vietnam/1203/2004 (H5N1)); assay: cell-based or functional assay
# [6] = molecular target: cell surface-expressed H3N2 WN/05 HA trimer (influenza A virus A/Wisconsin/67/2005 (H3N2)); assay: flow cytometry, HA-expressing 293T
# [7] = molecular target: full-length H1 A/California/07/2009 HA expressed on 293T cells (influenza A virus A/California/07/2009 (H1N1)); assay: flow cytometry, HA-expressing 293T
# [8] = molecular target: full-length H5 A/Vietnam/1203/2004 HA expressed on 293T cells (influenza A virus A/Vietnam/1203/2004 (H5N1)); assay: flow cytometry, HA-expressing 293T
# [9] = molecular target: recombinant H1N1 CA/09 HA trimer (hemagglutinin ectodomain of A/California/07/2009) (influenza A virus A/California/07/2009 (H1N1)); assay: ELISA, coated HA
# [10] = molecular target: recombinant H5N1 VN/04 HA trimer (hemagglutinin ectodomain of A/Vietnam/1203/2004) (influenza A virus A/Vietnam/1203/2004 (H5N1)); assay: ELISA, coated HA
# [11] = molecular target: recombinant H7N9 AH/13 HA trimer (hemagglutinin ectodomain of A/Anhui/1-BALF_RG17/2013) (influenza A virus A/Anhui/1-BALF_RG17/2013 (H7N9)); assay: ELISA, coated HA
Molecule,EC50 [1] [µg/mL],IC50 of pseudo virus neutralization H7N9 AH/13 [2] [µg/mL],IC50 of pseudo virus neutralization H3N2 WN/05 [3] [µg/mL],IC50 of pseudo virus neutralization H1N1 CA/09 [4] [µg/mL],IC50 of true virus neutralization H1N1 CA/09 [4] [µg/mL],IC50 of pseudo virus neutralization H5N1 VN/04 [5] [µg/mL],EC50 [6] [µg/mL],max. MFI [6] [MFI],max. MFI [7] [MFI],max. MFI [8] [MFI],EC50 [9] [µg/mL],EC50 [10] [µg/mL],EC50 [11] [µg/mL],EC50 [7] [µg/mL],EC50 [8] [µg/mL]
CR8020 (antibody),0.0194,0.052,0.0477,> 100,> 500,> 200,0.569,18000,91,639,–,–,–,–,–
C05 (antibody),0.00844,–,–,–,–,–,–,–,–,–,–,–,–,–,–
FI6V3 (antibody),0.0789,0.051,–,0.0213,9.21,0.013,0.065,16600,10100,13700,0.0107,0.00648,0.314,0.067,–
F10 (antibody),–,> 200,–,0.0119,1.26,0.012,–,220,9530,10500,0.0121,0.021,–,1.05,–
B1,–,> 200,> 20,> 100,> 500,> 200,3.58,697,6290,6710,–,> 10,0.504,0.25,0.366
B2,–,> 200,> 20,> 100,> 500,> 200,–,147,6020,216,–,> 10,–,0.494,–
B3,–,> 200,> 20,0.672,> 500,> 200,–,188,6280,367,–,> 10,–,4.22,–
B4,–,> 200,> 20,> 100,> 500,> 200,–,122,6240,875,–,0.0737,–,4.86,1.92
B5,–,> 200,> 20,> 100,> 500,> 200,–,207,5600,434,–,0.0781,–,4.07,–
B6,–,> 200,> 20,> 100,> 500,> 200,–,127,8480,188,–,0.1,0.163,0.466,–
B7,–,> 200,> 20,> 100,> 500,> 200,–,278,228,313,–,> 10,–,–,–
B8,–,> 200,> 20,> 100,> 500,> 200,15.8,529,2470,451,–,0.23,–,4.47,–
